Data taken from patent publication US20250171520A1 (Regeneron, published 2025).

What was measured:
human CD63 [1] = molecular target: T1, human CD63 (human, UniProt P08962 2-238); test: cell-based or functional assay
T1 sequence: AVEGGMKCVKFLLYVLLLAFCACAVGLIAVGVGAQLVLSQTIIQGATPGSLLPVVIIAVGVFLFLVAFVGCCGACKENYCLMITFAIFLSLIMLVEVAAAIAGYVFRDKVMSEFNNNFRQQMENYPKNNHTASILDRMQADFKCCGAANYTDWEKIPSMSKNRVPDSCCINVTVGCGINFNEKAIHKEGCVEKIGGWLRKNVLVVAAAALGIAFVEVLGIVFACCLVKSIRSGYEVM

human CD63 [2] = molecular target: T1, human CD63; test: ECL cell binding, LNCAP cells
Protocol: (§1) LNCAP cells were determined to have a lower human CD63 copy number than U87MG cells. Non-transfected NIH3T3 cells, which have no detectable expression of human CD63 by fluorescence activated cell sorting (FACS), were included as a negative control.
(§2) Briefly, cell lines were rinsed once in PBS buffer without Ca²⁺/Mg²⁺ and incubated for 10 minutes at 37° C. with Enzyme Free Cell Dissociation Solution (Millipore, Cat #S-004-C) to detach the cells. Cells were then washed once with PBS with Ca²⁺/Mg²⁺ and counted with a Cellometer™ Auto T4 cell counter (Nexcelom Bioscience, LLC). Approximately 2.0×10⁴ NIH3T3/hCD63, LNCAP, U87MG or NIH3T3 cells were seeded separately onto 96-well carbon electrode plates (Meso Scale Discovery, Cat #L15XB-6) and were then incubated for one hour at 37° C. Nonspecific binding sites were blocked with 2% BSA (w/v) in PBS with Ca²⁺/Mg²⁺ for one hour at room temperature (RT). Solutions containing anti-CD63 antibodies or isotype control antibodies at a range of concentrations (1.7 pM to 100nM) in 0.5% BSA (w/v) in PBS with Ca²⁺/Mg²⁺, as well as control buffer alone, were then added in duplicate to the plate-bound NIH3T3/hCD63, LNCAP, U87MG or NIH3T3 cells and incubated for one hour at RT. Plates were subsequently washed to remove unbound antibodies using an AquaMax2000 plate washer with a cell washing head (MDS Analytical Technologies). […] Plates were washed and then incubated with Read Buffer (MSD, Cat #R92TD-2) according to the manufacturer's instructions. Luminescent signals were measured using a SECTOR Imager (MSD). Luminescence intensity, measured in relative light units (RLU), was recorded to indicate the binding intensity of each antibody at the range of concentrations tested. The ratio of signal detected with 3.7 nM antibody binding to human CD63 expressing cells compared to the same concentration of antibody binding to negative cells was reported as an indication of specificity of CD63 binding.

human CD63 [3] = molecular target: T1, human CD63; test: ECL cell binding, U87MG cells
Protocol: as §1, §2

[4] = molecular target: T2, recombinant human CD63 extracellular loop 2 expressed with a C-terminal Myc-Myc-hexahistidine (human); test: SPR (Biacore), captured mAb, 25°C
T2 construct: also called hCD63 EC loop 2-MMH; human CD63 EC loop2-MMH
Protocol: (§3) Equilibrium dissociation constants (KD) for different CD63loop reagents binding to purified anti-CD63 monoclonal antibodies were determined using a real-time surface plasmon resonance based Biacore T200 biosensor or Biacore 2000 biosensor. All binding studies were performed in 10 mM HEPES, 150 mM NaCl, 3 mM EDTA, and 0.05% v/v Surfactant Tween-20, pH 7.4 (HBS-ET) running buffer at 25° C. and 37° C. The Biacore CM5 sensor chip surface was first derivatized by amine coupling with either a rabbit anti-mouse Fc specific polyclonal antibody (GE Healthcare, Cat #BR100838) or an anti-human Fab kit (GE Healthcare, Cat #28958325) to capture anti-CD63 monoclonal antibodies. Binding studies were performed on either recombinant human CD63 extracellular loop 2 expressed with a C-terminal Myc-Myc-hexahistidine (hCD63 EC loop 2-MMH; SEQ ID NO:80) or recombinant human CD63 extracellular loop 2 expressed with a C-terminal human Fc tag (hCD63 EC loop 2-hFc; SEQ ID NO:81). Different concentrations of hCD63 EC loop 2-MMH or hCD63 EC loop 2-hFc (either tested at 50 nM-12.5 nM in a 4-fold dilution or at 90 nM-0.37 nM in 3-fold serial dilutions) were first prepared in HBS-ET running buffer and were injected over the anti-mouse Fc captured anti-CD63 monoclonal antibody surface for 4 minutes at a flow rate of […] or 50 μL/minute, while the dissociation of monoclonal antibody bound CD63 reagent was monitored for 8 or 10 minutes in HBS-ET running buffer. The association rate (kₐ) and dissociation rate (kd) were determined by fitting the real-time binding sensorgrams to a 1:1 binding model with mass transport limitation using Scrubber 2.0c curve-fitting software. Binding dissociation equilibrium constant (KD) and dissociative half-life (t½) were calculated from the kinetic rates as: […]
(§4) Binding kinetics parameters for human CD63 EC loop 2 protein binding to different anti-CD63 monoclonal antibodies of the invention at 25° C. and 37° C. are shown in Tables 15 through 18.

[5] = molecular target: T3, recombinant human CD63 extracellular loop 2 expressed with a C-terminal human Fc tag (human); test: SPR (Biacore), captured mAb, 25°C
T3 construct: also called hCD63 EC loop 2-hFc; human CD63 EC loop2-hFC
Protocol: as §3, §4

[6] = molecular target: T2, recombinant human CD63 extracellular …; test: SPR (Biacore), captured mAb, 37°C
Protocol: as §3, §4

[7] = molecular target: T3, recombinant human CD63 extracellular …; test: SPR (Biacore), captured mAb, 37°C
Protocol: as §3, §4

human CD63 [8] = molecular target: T1, human CD63; test: ECL cell binding, NIH3T3/hCD63 cells
Protocol: as §1, §2

human CD63 [9] = molecular target: T1, human CD63; test: flow cytometry, HEK293 cells endogenously expressing human CD63
Protocol: Relative cell surface binding of the anti-CD63 antibodies to human CD63 expressing cells was accessed via flow cytometry using CD63 positive HEK293 cells (ATCC, Cat #CRL-1573), which endogenously express human CD63, and CD63 negative HEK293/CD63 knock out cells. For the assay, cells were plated in PBS without calcium and magnesium (VWR, Cat #45000-446), containing 2% FBS (Saradigm Cat #1500-500) (Staining Buffer) in 96 well V-bottom plates (Axygen Scientific, Cat #P-96-450-V-C-S). Cells were then incubated with anti-CD63 antibodies or isotype control antibodies at concentrations ranging from 100 nM to 1.7 pM for 30 minutes on ice. Wells containing no antibody were used as controls. HEK293/CD63KO cells were stained with only the highest concentration (100 nM) of the antibodies. […] Cells were then washed and fixed using a 50% solution of Cytofix (BD Biosciences, Cat #554655) diluted in PBS. Samples were run on the Intellicyte Hypercyt flow cytometer and results were analyzed in ForeCyt software (Intellicyte) to calculate the mean fluorescent intensity (MFI). Measured values were analyzed using a four parameter logistic equation over a 12-point response curve using GraphPad Prism and the resulting EC₅₀ values are reported (Table 12). The signal to noise ratio (S/N) was determined by calculating the ratio of the anti-CD63 antibodies or the control antibodies MFI to the wells containing no antibodies (Table 12).

T2 sequence (chain, as listed by the source limits assumed): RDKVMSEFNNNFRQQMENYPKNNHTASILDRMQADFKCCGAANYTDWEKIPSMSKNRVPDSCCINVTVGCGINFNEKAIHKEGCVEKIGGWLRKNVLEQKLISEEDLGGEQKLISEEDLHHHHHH
T3 sequence (chain, as listed by the source limits assumed): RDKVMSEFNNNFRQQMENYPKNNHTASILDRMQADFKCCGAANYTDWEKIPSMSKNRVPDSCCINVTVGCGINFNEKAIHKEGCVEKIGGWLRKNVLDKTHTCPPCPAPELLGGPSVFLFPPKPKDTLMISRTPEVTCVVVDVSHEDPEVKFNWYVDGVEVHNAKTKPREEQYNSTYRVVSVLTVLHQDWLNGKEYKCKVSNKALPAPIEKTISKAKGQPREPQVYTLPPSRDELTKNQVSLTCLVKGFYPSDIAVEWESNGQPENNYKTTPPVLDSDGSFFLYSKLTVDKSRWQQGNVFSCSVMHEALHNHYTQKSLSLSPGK

Binder	EC50 (human CD63 [2])	ratio at 3.7 nM Ab of cell binding signal (RLU) to human CD63 cells relative to negative NIH3T3 (human CD63 [2])	ratio at 3.7 nM Ab of cell binding signal (RLU) to human CD63 cells relative to negative NIH3T3 (human CD63 [3])	50 nM or 90 nM Ag Bound (RU) [4]	t½ [4]	50 nM Ag Bound (RU) [5]	t½ [5]	50 nM Ag Bound (RU) [6]	t½ [6]	50 nM Ag Bound (RU) [7]	t½ [7]	EC50 (human CD63 [8])	ratio at 3.7 nM Ab of cell binding signal (RLU) to human CD63 cells relative to negative NIH3T3 (human CD63 [8])	HEK293 (S/N), MFI of antibody over wells with no antibody (human CD63 [9])	EC50 (human CD63 [3])	Kd [4]	koff [4]	kon [4]	T47D (nM) IC50, indirect cytotoxicity with anti-mFc Fab-MMAF (human CD63 [1])
H2M12450N (antibody, V domains shown, also called anti-CD63 antibody) VH: QVQLQESGPKVVKPSETLSLTCTVSGGSISSYYWNWIRQSPGKGLEWIGYTKRGYTDYNPSLRSRVTISEDTSKNQFSLRISSVTAADTAVYYCAQMGWGSHAFDMWGQGTMVAVSS VL: EIVLTQSPGTLSLSPGERATLSCRASQSVNSRYLAWYQQKPGQAPRLLIYGASSRATGIPDRCSGSGSGTDFTLTISRLEPEDFAVYYCQQYGSSPWTFGQGTKVEIK	0.21 nM	20 fold	175 fold	65 RU	41 min	134 RU	248 min	58 RU	57 min	138 RU	236 min	0.28 nM	230 fold	26.7	–	–	–	–	0.24 nM
H1M12451N (antibody, V domains shown, This one was detected or captured with anti-mouse Fc reagents; also called HIM12451; anti-CD63 antibody) VH: QVQLQESGPGLMKPSETLSLTCTVSGGSFSSYYWNWIRQSPGKGLEWIGYIRYSGDTNYKPSLKSRFTISIDTSKNLFSLRLKSVTAADTAVYYCARMGLGSDAFDIWGQGTMVTVSS VL: EIVLTQSPGTLSLSPGERATLSCRASQSVNNNYLAWYQQKPGQAPRLLIYGVFNRATNIPDRFSGSGSGTDFTLTISRLEPEDFAVYYCQQYGSSPWTFGQGTKVEIK	1.7 nM	7 fold	52 fold	52 RU	27 min	107 RU	138 min	44 RU	6 min	118 RU	35 min	0.57 nM	91 fold	31.6	0.95 nM	–	–	–	–

The next lines start with results.

EC50 (human CD63 [2])	ratio at 3.7 nM Ab of cell binding signal (RLU) to human CD63 cells relative to negative NIH3T3 (human CD63 [2])	ratio at 3.7 nM Ab of cell binding signal (RLU) to human CD63 cells relative to negative NIH3T3 (human CD63 [3])	50 nM or 90 nM Ag Bound (RU) [4]	t½ [4]	50 nM Ag Bound (RU) [5]	t½ [5]	50 nM Ag Bound (RU) [6]	t½ [6]	50 nM Ag Bound (RU) [7]	t½ [7]	EC50 (human CD63 [8])	ratio at 3.7 nM Ab of cell binding signal (RLU) to human CD63 cells relative to negative NIH3T3 (human CD63 [8])	HEK293 (S/N), MFI of antibody over wells with no antibody (human CD63 [9])	EC50 (human CD63 [3])	Kd [4]	koff [4]	kon [4]	Binder	T47D (nM) IC50, indirect cytotoxicity with anti-mFc Fab-MMAF (human CD63 [1])
0.35 nM	18 fold	171 fold	42 RU	6 min	117 RU	23 min	31 RU	1 min	123 RU	6 min	0.29 nM	256 fold	21	0.79 nM	–	–	–	H2M12395N (antibody, V domains shown, also called anti-CD63 antibody) VH: QVQLQESGPRLVKPSETLSLTCIVSGGSISNFYWNWIRQSPGKGLEWIGYFFYTGTIDYNPSLKSRVTISLDTSKNQFSLNLRLLTAADAAVYYCARMGLGANAFDIWGHGTMVTVSS VL: EIVLTQSPGTLSLSPGERATLSCRASQHVSSNYLAWYQQKPGQAPRLLIYGGSSRATGIPDRFSGSGSGTDFTLTISRLEPADFAVFYCQQYGNSPWTFGQGTKVEMK	–
–	–	–	24 RU	157 min	–	–	–	–	–	–	–	–	–	–	0.53 nM	7.37e-05 s⁻¹	139000 M⁻¹ s⁻¹	H4H12450N (antibody, V domains shown, also called anti-CD63 antibody) VH: QVQLQESGPKVVKPSETLSLTCTVSGGSISSYYWNWIRQSPGKGLEWIGYTKRGYTDYNPSLRSRVTISEDTSKNQFSLRISSVTAADTAVYYCAQMGWGSHAFDMWGQGTMVAVSS VL: not shown	–
